Here are results for three variants from publication PMC12516561 (2025).

The chains are these.
B1: iRhom2 wild type (HA-tagged) [human] / V5-tagged FRMD8 [not stated] (parent complex)
chain 1: MASADKNGGSVSSVSSSRLQSRKPPNLSITIPPPEKETQAPGEQDSMLPEGFQNRRLKKSQPRTWAAHTTACPPSFLPKRKNPAYLKSVSLQEPRSRWQESSEKRPGFRRQASLSQSIRKGAAQWFGVSGDWEGQRQQWQRRSLHHCSMRYGRLKASCQRDLELPSQEAPSFQGTESPKPCKMPKIVDPLARGRAFRHPEEMDRPHAPHPPLTPGVLSLTSFTSVRSGYSHLPRRKRMSVAHMSLQAAAALLKGRSVLDATGQRCRVVKRSFAFPSFLEEDVVDGADTFDSSFFSKEEMSSMPDDVFESPPLSASYFRGIPHSASPVSPDGVQIPLKEYGRAPVPGPRRGKRIASKVKHFAFDRKKRHYGLGVVGNWLNRSYRRSISSTVQRQLESFDSHRPYFTYWLTFVHVIITLLVICTYGIAPVGFAQHVTTQLVLRNKGVYESVKYIQQENFWVGPSSIDLIHLGAKFSPCIRKDGQIEQLVLRERDLERDSGCCVQNDHSGCIQTQRKDCSETLATFVKWQDDTGPPMDKSDLGQKRTSGAVCHQDPRTCEEPASSGAHIWPDDITKWPICTEQARSNHTGFLHMDCEIKGRPCCIGTKGSCEITTREYCEFMHGYFHEEATLCSQVHCLDKVCGLLPFLNPEVPDQFYRLWLSLFLHAGVVHCLVSVVFQMTILRDLEKLAGWHRIAIIFILSGITGNLASAIFLPYRAEVGPAGSQFGLLACLFVELFQSWPLLERPWKAFLNLSAIVLFLFICGLLPWIDNIAHIFGFLSGLLLAFAFLPYITFGTSDKYRKRALILVSLLAFAGLFAALVLWLYIYPINWPWIEHLTCFPFTSRFCEKYELDQVLH
chain 2: MDGTEGSAGQPGPAERSHRSSVSSVGARAADVLVYLADDTVVPLAVENLPSLSAHELHRAVREVLQLPDIALDVFALWLVSPLLEVQLKPKHQPYKLGRQWPELLLRFTSAPDDDVAMDEPFLQFRRNVFFPKRRELQIHDEEVLRLLYEEAKGNVLAARYPCDVEDCEALGALVCRVQLGPYQPGRPAACDLREKLDSFLPAHLCKRGQSLFAALRGRGARAGPGEQGLLNAYRQVQEVSSDGGCEAALGTHYRAYLLKCHELPFYGCAFFHGEVDKPAQGFLHRGGRKPVSVAISLEGVHVIDSREKHVLLGLRFQELSWDHTSPEEEEPILWLEFDGDSEGTPVNKLLKIYSKQAELMSSLIEYCIELSQAAEPAGPQDSATGSPSDPSSSLAPVQRPKLRRQGSVVSSRIQHLSTIDYVEDGKGIRRVKPKRTTSFFSRQLSLGQGSYTVVQPGDSLEQG

In this assay the parent is B1. In words: co-immunoprecipitation (HA-IP) with western blot quantification; iRhom1/2 DKO HEK293T cells co-transfected with V5-tagged FRMD8; three independent experiments; read off a plot. (In western blotting, separated proteins are transferred to a membrane and probed.)
chain 1 P233A, chain 1 R234A, chain 1 R235A, chain 1 K236A, chain 1 R237A, chain 1 M238A, chain 1 S239A: the ratio to parent was around 1.1.
For chain 1 S239A the value was around 1.2; for chain 1 P233A, chain 1 R234A, chain 1 R235A, chain 1 K236A, chain 1 R237A, chain 1 M238A, around 1.05.
